The results in this text go back to paper PMC4730846 (Science Advances, 2015).

The experiment concerns the target GroEL (Escherichia coli, UniProt P0A6F5 2-548). Put plainly: proteinase K protection assay.

GroEL, sequence (P0A6F5 2-548): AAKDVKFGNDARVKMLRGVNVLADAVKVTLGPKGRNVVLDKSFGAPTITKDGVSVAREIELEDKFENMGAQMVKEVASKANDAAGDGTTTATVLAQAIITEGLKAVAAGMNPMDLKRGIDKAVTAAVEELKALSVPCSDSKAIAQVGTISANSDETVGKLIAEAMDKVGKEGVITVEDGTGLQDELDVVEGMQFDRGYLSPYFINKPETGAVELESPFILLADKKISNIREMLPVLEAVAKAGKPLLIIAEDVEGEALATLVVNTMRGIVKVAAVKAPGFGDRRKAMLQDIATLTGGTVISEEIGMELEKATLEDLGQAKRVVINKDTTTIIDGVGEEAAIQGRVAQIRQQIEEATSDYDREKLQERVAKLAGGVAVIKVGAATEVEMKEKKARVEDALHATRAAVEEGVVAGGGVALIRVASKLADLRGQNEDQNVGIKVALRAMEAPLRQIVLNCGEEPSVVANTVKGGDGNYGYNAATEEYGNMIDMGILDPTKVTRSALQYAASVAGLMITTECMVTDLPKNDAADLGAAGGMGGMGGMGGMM

B1: GroES (natural protein)
chain: MNIRPLHDRVIVKRKEVETKSAGGIVLTGSAAAKSTRGEVLAVGNGRILENGEVKPLDVKVGDIVIFNDGYGVKSEKIDNEEVLIMSESDILAIVEA
For B1, the binding result is listed as “binds”.
